# Paper PMC12081870 (Communications Biology, 2025)
# B1: Sla1 SH3#1-2: SH3#1-2 (aa 5-131), tandem domains; sequence in b253 (protein)
# chain: LGIYRAVYAYEPQTPEELAIQEDDLLYLLQKSDIDDWWTVKKRVIGSDSEEPVGLVPSTYIEEAPVLKKVRAIYDYEQVQNADEELTFHENDVFDVFDDKDADWLLVKSTVSNEFGFIPGNYVEPEN
# modifications: 15N-labelled (NMR only); left off: GST, end not stated, cleaved
# Assay: 15N NMR relaxation (T1, T2, NOE) of Sla1 SH3#1&2
# Assay type: physicochemical, Saccharomyces cerevisiae
# Parameters: Time Constant (T2) / T1 / T2: unit not given here
# Settings: fit A exp(-Bx), 11 peaks
# From the text: Fig. 2 A structural analysis of Sla1 SH3 domains 1 and 2. A The predicted interface between the first two SH3 domains of Sla1 as modelled using Alphafold. SH3#1 is shown in light green and SH3#2 is shown in cyan. Residues predicted to form hydrogen bonds using the Pymol search function are shown as sticks and labelled with their respective residue numbers. Dashed black lines indicate interactions. The red line in the structure indicates residues 67–70 in the hinge between the SH3 domains; the magenta loop indicates residues 52–54. B Assignment of the ^1H ^15N HSQC spectrum of Sla1 SH3 domains 1 and 2. C^15N relaxation data for Sla1 SH3#1&2. The linker between domains is approximately residues 67–70 (shown with red line under the trace and in A), and the mobile region 52-54 is part of a loop (shown with magenta line below the trace and in A). The correlation time of 8.5 ns (derived from the trimmed ^15N T1/T2 ratio), matches that calculated for a rigid two-domain structure rather than two independent domains (8.8 and 4.5 ns, respectively).
# To investigate further, we purified ^15N, ^13C labelled Sla1 SH3#1&2 and analysed using NMR. A full assignment was obtained (Fig. 2B) which confirmed the Alphafold structure. An important aspect when considering the function of tandem domains is the level of rigidity or flexibility between the domains. […] NMR was used to determine relaxation parameters (^15N R1, R2 and NOE) of ^15N-labelled SH3#1-2 (Fig. 2B). […] The structural unity of the two-domain structure explains why attempts to study SH3#2 alone were unsuccessful.
# Experiments were carried out on Bruker DRX-600 and DRX-800 spectrometers fitted with cryoprobes. SH3 domains 1 and 2 were assigned using a standard set of HNCA/HN(CO)CA, HNCO/HN(CA)CO and CBCAHN/CBCA(CO)HN 3D spectra. The assignment has been deposited at BioMagResBank, with code 52650. SH3 domain-3 was assigned by comparison to data provided by Prof Ishwar Radhakrishnan (Northwestern University) for the same domain although with different residues at both ends. Titrations were conducted with three peptides (GenScript Biotech, UK) comprising the three PP motifs (Fig. 3A): p1 […] (residues 318–339); p2 […] (residues 330–361); and p3 […] (residues 375–397). Peptide solutions were prepared as concentrated stock solutions in the same buffer at the same pH and added stepwise to protein solutions. Shift changes were analysed by picking peaks in Felix (Felix NMR Inc, San Diego, CA), which were downloaded to text files and for determining Kd were analysed using Levenberg-Marquardt least squares fitting to the standard quadratic equation[63]. Analysis of the ^15N relaxation data was carried using CCPN Analysis[64].
molecule,measurement,setting,value
B1,Time Constant (T2),"residue 39, 39AspH/39AspN",104.622
same,Time Constant (T2),"residue 40, 40AspH/40AspN",92.3559
same,Time Constant (T2),"residue 41, 41TrpH/41TrpN",105.38
same,Time Constant (T2),"residue 42, 42TrpH/42TrpN",87.941
same,Time Constant (T2),"residue 43, 43ThrH/43ThrN",96.7782
same,Time Constant (T2),"residue 44, 44ValH/44ValN",79.239
same,Time Constant (T2),"residue 45, 45LysH/45LysN",89.2928
same,Time Constant (T2),"residue 46, 46LysH/46LysN",79.9381
same,Time Constant (T2),"residue 47, 47ArgH/47ArgN",96.0563
same,Time Constant (T2),"residue 48, 48ValH/48ValN",80.6125
same,Time Constant (T2),"residue 49, 49IleH/49IleN",93.7827
same,Time Constant (T2),"residue 50, 50GlyH/50GlyN",115.88
same,Time Constant (T2),"residue 51, 51SerH/51SerN",86.3946
same,Time Constant (T2),"residue 52, 52AspH/52AspN",168.141
same,Time Constant (T2),"residue 53, 53SerH/53SerN",144.016
same,Time Constant (T2),"residue 54, 54GluH/54GluN",154.977
same,Time Constant (T2),"residue 55, 55GluH/55GluN",101.598
same,Time Constant (T2),"residue 57, 57ValH/57ValN",100.05
same,Time Constant (T2),"residue 58, 58GlyH/58GlyN",89.0014
same,Time Constant (T2),"residue 59, 59LeuH/59LeuN",85.278
same,Time Constant (T2),"residue 60, 60ValH/60ValN",98.7206
same,Time Constant (T2),"residue 62, 62SerH/62SerN",97.5945
same,Time Constant (T2),"residue 63, 63ThrH/63ThrN",81.7496
same,Time Constant (T2),"residue 64, 64TyrH/64TyrN",104.147
same,Time Constant (T2),"residue 65, 65IleH/65IleN",90.7515
same,Time Constant (T2),"residue 66, 66GluH/66GluN",88.572
same,Time Constant (T2),"residue 67, 67GluH/67GluN",102.479
same,Time Constant (T2),"residue 68, 68AlaH/68AlaN",84.1741
same,Time Constant (T2),"residue 70, 70ValH/70ValN",100.257
same,Time Constant (T2),"residue 71, 71LeuH/71LeuN",80.9555
same,Time Constant (T2),"residue 72, 72LysH/72LysN",97.8301
same,Time Constant (T2),"residue 73, 73LysH/73LysN",97.0107
same,Time Constant (T2),"residue 74, 74ValH/74ValN",95.1713
same,Time Constant (T2),"residue 75, 75ArgH/75ArgN",95.2306
same,Time Constant (T2),"residue 76, 76AlaH/76AlaN",79.2788
same,Time Constant (T2),"residue 77, 77IleH/77IleN",85.3516
same,Time Constant (T2),"residue 78, 78TyrH/78TyrN",77.7575
same,Time Constant (T2),"residue 79, 79AspH/79AspN",86.8514
same,Time Constant (T2),"residue 80, 80TyrH/80TyrN",102.25
same,Time Constant (T2),"residue 81, 81GluH/81GluN",91.1679
same,Time Constant (T2),"residue 82, 82GlnH/82GlnN",103.776
same,Time Constant (T2),"residue 83, 83ValH/83ValN",96.58
same,Time Constant (T2),"residue 84, 84GlnH/84GlnN",115.172
same,Time Constant (T2),"residue 85, 85AsnH/85AsnN",109.146
same,Time Constant (T2),"residue 86, 86AlaH/86AlaN",101.454
same,Time Constant (T2),"residue 87, 87AspH/87AspN",93.3182
same,Time Constant (T2),"residue 88, 88GluH/88GluN",94.5093
same,Time Constant (T2),"residue 89, 89GluH/89GluN",99.1662
same,Time Constant (T2),"residue 90, 90LeuH/90LeuN",96.3149
same,Time Constant (T2),"residue 91, 91ThrH/91ThrN",78.2582
same,Time Constant (T2),"residue 92, 92PheH/92PheN",85.0538
same,Time Constant (T2),"residue 93, 93HisH/93HisN",82.1244
same,Time Constant (T2),"residue 94, 94GluH/94GluN",97.249
same,Time Constant (T2),"residue 95, 95AsnH/95AsnN",98.0824
same,Time Constant (T2),"residue 96, 96AspH/96AspN",93.6871
same,Time Constant (T2),"residue 97, 97ValH/97ValN",100.422
same,Time Constant (T2),"residue 98, 98PheH/98PheN",79.4419
same,Time Constant (T2),"residue 99, 99AspH/99AspN",97.6801
same,Time Constant (T2),"residue 100, 100ValH/100ValN",97.751
same,Time Constant (T2),"residue 101, 101PheH/101PheN",95.7132
same,Time Constant (T2),"residue 102, 102AspH/102AspN",87.4197
same,Time Constant (T2),"residue 103, 103AspH/103AspN",77.1058
same,Time Constant (T2),"residue 104, 104LysH/104LysN",88.8779
same,Time Constant (T2),"residue 105, 105AspH/105AspN",102.407
same,Time Constant (T2),"residue 106, 106AlaH/106AlaN",137.978
same,Time Constant (T2),"residue 107, 107AspH/107AspN",99.1634
same,Time Constant (T2),"residue 108, 108TrpH/108TrpN",105.531
same,Time Constant (T2),"residue 109, 109LeuH/109LeuN",92.4282
same,Time Constant (T2),"residue 110, 110LeuH/110LeuN",99.3469
same,Time Constant (T2),"residue 111, 111ValH/111ValN",90.5694
same,Time Constant (T2),"residue 112, 112LysH/112LysN",92.6618
same,Time Constant (T2),"residue 113, 113SerH/113SerN",88.7102
same,Time Constant (T2),"residue 114, 114ThrH/114ThrN",88.1188
same,Time Constant (T2),"residue 115, 115ValH/115ValN",99.4179
same,Time Constant (T2),"residue 116, 116SerH/116SerN",105.651
same,Time Constant (T2),"residue 117, 117AsnH/117AsnN",79.9936
same,Time Constant (T2),"residue 118, 118GluH/118GluN",87.975
same,Time Constant (T2),"residue 119, 119PheH/119PheN",95.7684
same,Time Constant (T2),"residue 120, 120GlyH/120GlyN",81.3349
same,Time Constant (T2),"residue 121, 121PheH/121PheN",97.0012
same,Time Constant (T2),"residue 122, 122IleH/122IleN",86.8543
